What all share (experiment): BLI
For orientation: Biolayer interferometry detects binding as a change in optical thickness at a sensor tip.

Assay [1] concerns the target T1, EGFRvIII (human, UniProt P00533).
The target of assay [2] is T2, EGFR (wild-type, His-tagged or biotinylated) (human, UniProt P00533).
Assay [3] addresses T1, EGFRvIII. This is another data set of the same source.
For assay [4], the target named is T2, EGFR (wild-type, His-tagged or …). The source holds these as a separate data set.
Assay [5] addresses T1, EGFRvIII. The source holds these as a separate data set.

Like-named read-outs stand apart in the source and are kept apart here.

As usually defined, the Kd is a measure of binding affinity in units of concentration.

B1: ABT-806 V7 (antibody, V domains shown)
VH: QVQLQESGPSLVKPSQTLSLTCTVSGYSITSDFAWNWIRQFPGRKLEWMGYISYSGNTRYNPSLKSRFTISRDTSKNQFYLKLRSVTIADTAVYYCVTAGRGFPYWGQGTLVTVSS
VL: DIQMTQSPSSVSASVGDRVTITCHSSQDINSNIGWLQQKPGKAPKGLIYHGTNLDDGVPSRFSGSGSGADYTLTISSLQPEDFATYYCVQYAQFPWTFGQGTKVEIKR
Turning to B1, the affinity in assay [1], expressed as Kd, was 37.8 nM. That is a double-digit nanomolar value.

B2: ABT-806 V6 (antibody, V domains shown)
VH: QVQLQESGPGLVKPSQSLSLTCTVSGYSITSDFAWNWIRQAPGKGLEWVGYISYSGNTRYNPSLKSRFTISRDTSKNQFYLQLNSVTAEDTAVYYCVTAGRGFPYWGQGTLVTVSS
VL: DIVMTQSPSSVSLSLGDRVTITCHSSQDINSNIGWLQQKPGKAFKGLIYHGTNLDDGVPSRFSGSGSGADYTLTISSLQAEDFATYYCVQYAQFPWTFGPGTKLEIKR
With B2, in assay [1], the affinity, expressed as Kd, was 18.4 nM.

B3: ABT-806 V4 (antibody, V domains shown)
VH: QVQLQESGPGLVKPSQSLSLTCTVSGYSITSDFAWNWIRQAPGKGLEWVGYISYSGNTRYNPSLKSRFTISRDTSKNQFYLQLNSVTAEDTAVYYCVTAGRGFPYWGQGTLVTVSS
VL: DIQMTQSPSSVSASVGDRVTITCHSSQDINSNIGWLQQKPGKAPKGLIYHGTNLDDGVPSRFSGSGSGADYTLTISSLQPEDFATYYCVQYAQFPWTFGQGTKVEIKR
In assay [1], B3 registered a Kd of 23.2 nM.

B4: ABT-806 V9 (antibody, V domains shown)
VH: QVQLQESGPSLVKPSQTLSLTCTVSGYSITSDFAWNWIRQFPGRKLEWMGYISYSGNTRYNPSLKSRFTISRDTSKNQFYLKLRSVTIADTAVYYCVTAGRGFPYWGQGTLVTVSS
VL: DIVMTQSPSSVSLSLGDRVTITCHSSQDINSNIGWLQQKPGKAFKGLIYHGTNLDDGVPSRFSGSGSGADYTLTISSLQAEDFATYYCVQYAQFPWTFGPGTKLEIKR
B4 registered a Kd in assay [1] of 16.1 nM.

B5: ABT-806 V1 (antibody, V domains shown)
VH: QVQLQESGPGLVKPSQSLSLTCTVSGYSITSDFAWNWIRQPPGKGLEWIGYISYSGNTRYNPSLKSRVTISRDTSKNQFSLQLNSVTAEDTAVYYCVTAGRGFPYWGQGTLVTVSS
VL: DIQMTQSPSSVSASVGDRVTITCHSSQDINSNIGWLQQKPGKAPKGLIYHGTNLDDGVPSRFSGSGSGADYTLTISSLQPEDFATYYCVQYAQFPWTFGQGTKVEIKR
B5 returned a Kd in assay [1] of 29.5 nM.

B6: ABT-806 V8 (antibody, V domains shown)
VH: QVQLQESGPSLVKPSQTLSLTCTVSGYSITSDFAWNWIRQFPGRKLEWMGYISYSGNTRYNPSLKSRFTISRDTSKNQFYLKLRSVTIADTAVYYCVTAGRGFPYWGQGTLVTVSS
VL: DIVMTQSPSSLSVSPGDRVTITCHSSQDINSNIGWLQQKPGKAPKGLIYHGTNLDDGVPSRFSGSGSGADYTLTISSLEPEDFAVYYCVQYAQFPWTFGQGTKVEIKR
Consider B6, for which the Kd in assay [1] is 31.9 nM.

B7: ABT-806 V3 (antibody, V domains shown)
VH: QVQLQESGPGLVKPSQSLSLTCTVSGYSITSDFAWNWIRQPPGKGLEWIGYISYSGNTRYNPSLKSRVTISRDTSKNQFSLQLNSVTAEDTAVYYCVTAGRGFPYWGQGTLVTVSS
VL: DIVMTQSPSSVSLSLGDRVTITCHSSQDINSNIGWLQQKPGKAFKGLIYHGTNLDDGVPSRFSGSGSGADYTLTISSLQAEDFATYYCVQYAQFPWTFGPGTKLEIKR
With B7, the Kd in assay [1] was 15.4 nM.

B8: ABT-806 V2 (antibody, V domains shown)
VH: QVQLQESGPGLVKPSQSLSLTCTVSGYSITSDFAWNWIRQPPGKGLEWIGYISYSGNTRYNPSLKSRVTISRDTSKNQFSLQLNSVTAEDTAVYYCVTAGRGFPYWGQGTLVTVSS
VL: DIVMTQSPSSLSVSPGDRVTITCHSSQDINSNIGWLQQKPGKAPKGLIYHGTNLDDGVPSRFSGSGSGADYTLTISSLEPEDFAVYYCVQYAQFPWTFGQGTKVEIKR
For B8, the Kd in assay [1] is 26.6 nM.

B9: ABT-806 V5 (antibody, V domains shown)
VH: QVQLQESGPGLVKPSQSLSLTCTVSGYSITSDFAWNWIRQAPGKGLEWVGYISYSGNTRYNPSLKSRFTISRDTSKNQFYLQLNSVTAEDTAVYYCVTAGRGFPYWGQGTLVTVSS
VL: DIVMTQSPSSLSVSPGDRVTITCHSSQDINSNIGWLQQKPGKAPKGLIYHGTNLDDGVPSRFSGSGSGADYTLTISSLEPEDFAVYYCVQYAQFPWTFGQGTKVEIKR
In turn, B9 showed a Kd in assay [1] of 30.7 nM. This Kd and that of the molecule before are within 1.5-fold of each other.

B10: SI-95X55 (antibody)
chain 1: not shown
chain 2: DIVMTQSPSSVSLSLGDRVTITCHSSQDINSNIGWLQQKPGKAFKGLIYHGTNLDDGVPSRFSGSGSGADYTLTISSLQAEDFATYYCVQYAQFPWTFGPGTKLEIKRTVAAPSVFIFPPSDEQLKSGTASVVCLLNNFYPREAKVQWKVDNALQSGNSQESVTEQDSKDSTYSLSSTLTLSKADYEKHKVYACEVTHQGLSSPVTKSFNRGEC
Regarding B10, the binding result in assay [2] is on record as “no binding”. Also, the Kd in assay [3] is 7.67 nM.

B11: SI-95X41 (antibody)
chain 1: not shown
chain 2: DILMTQSPSSMSVSLGDTVSITCHSSQDINSNIGWLQQRPGKSFKGLIYHGTNLDDEVPSRFSGSGSGADYSLTISSLESEDFADYYCVQYAQFPWTFGGGTKLEIKRTVAAPSVFIFPPSDEQLKSGTASVVCLLNNFYPREAKVQWKVDNALQSGNSQESVTEQDSKDSTYSLSSTLTLSKADYEKHKVYACEVTHQGLSSPVTKSFNRGEC
Regarding B11, in assay [2], the binding result is listed as “no binding”. In assay [3], this molecule gave a Kd of 15.9 nM.

B12: SI-95X19 (antibody)
chain 1: not shown
chain 2: DIQMTQSPSSLSASVGDRVTITCRSSQNIVHSNGNTYLDWYQQTPGKAPKLLIYKVSNRFSGVPSRFSGSGSGTDFTFTISSLQPEDIATYYCFQYSHVPWTFGQGTKLQITRTVAAPSVFIFPPSDEQLKSGTASVVCLLNNFYPREAKVQWKVDNALQSGNSQESVTEQDSKDSTYSLSSTLTLSKADYEKHKVYACEVTHQGLSSPVTKSFNRGEC
With B12, the Kd in assay [4] was determined as 5.01 nM; in assay [5] it was 0.676 nM.

B13: SI-95X22 (antibody)
chain 1: not shown
chain 2: DIQMTQSPSSLSASVGDRVTITCRSSQNIVHSNGNTYLDWYQQTPGKAPKLLIYKVSNRFSGVPSRFSGSGSGTDFTFTISSLQPEDIATYYCFQYSHVPWTFGQGTKLQITRTVAAPSVFIFPPSDEQLKSGTASVVCLLNNFYPREAKVQWKVDNALQSGNSQESVTEQDSKDSTYSLSSTLTLSKADYEKHKVYACEVTHQGLSSPVTKSFNRGEC
For B13, the Kd stood at 6.1 nM in assay [4] and 0.834 nM in assay [5].

B14: SI-95X2 (antibody)
chain 1: not shown
chain 2: DIQMTQSPSSLSASVGDRVTITCRSSQNIVHSNGNTYLDWYQQTPGKAPKLLIYKVSNRFSGVPSRFSGSGSGTDFTFTISSLQPEDIATYYCFQYSHVPWTFGQGTKLQITRTVAAPSVFIFPPSDEQLKSGTASVVCLLNNFYPREAKVQWKVDNALQSGNSQESVTEQDSKDSTYSLSSTLTLSKADYEKHKVYACEVTHQGLSSPVTKSFNRGEC
For the molecule B14, the Kd in assay [4] was 5.53 nM; in assay [5], 1.15 nM.

B15: SI-95X17 (antibody)
chain 1: not shown
chain 2: DIQMTQSPSSLSASVGDRVTITCRSSQNIVHSNGNTYLDWYQQTPGKAPKLLIYKVSNRFSGVPSRFSGSGSGTDFTFTISSLQPEDIATYYCFQYSHVPWTFGQGTKLQITRTVAAPSVFIFPPSDEQLKSGTASVVCLLNNFYPREAKVQWKVDNALQSGNSQESVTEQDSKDSTYSLSSTLTLSKADYEKHKVYACEVTHQGLSSPVTKSFNRGEC
In the case of B15, the dissociation constant (Kd) in assay [4] was 6.02 nM; in assay [5], 0.642 nM.

(Values after US20260337278 (published 2026).)
